From US20240400677A1 (ELECTRA THERAPEUTICS, published 2024)

T1: cynomolgus monkey SIRPα on CHO cells (cynomolgus monkey, UniProt A0A2K5VYQ9 31-507)
T1 construct: whole, on cells; also called Cyno SIRPα CHO
T1 sequence: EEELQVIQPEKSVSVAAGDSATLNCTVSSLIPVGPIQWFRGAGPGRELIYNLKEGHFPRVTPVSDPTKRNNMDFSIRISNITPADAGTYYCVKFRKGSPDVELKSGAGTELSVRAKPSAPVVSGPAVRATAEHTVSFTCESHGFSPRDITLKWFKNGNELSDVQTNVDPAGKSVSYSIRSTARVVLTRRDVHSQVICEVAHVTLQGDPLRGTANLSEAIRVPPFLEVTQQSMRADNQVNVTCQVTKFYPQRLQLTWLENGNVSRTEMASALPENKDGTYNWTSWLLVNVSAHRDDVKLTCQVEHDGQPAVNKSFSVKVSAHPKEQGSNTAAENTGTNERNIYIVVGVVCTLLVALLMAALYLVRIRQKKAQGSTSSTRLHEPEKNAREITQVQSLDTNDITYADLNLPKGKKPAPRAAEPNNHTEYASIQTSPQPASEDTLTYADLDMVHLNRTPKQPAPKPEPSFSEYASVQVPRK

T2: cynomolgus monkey SIRPγ-His monomer protein (cynomolgus monkey, UniProt Q9P1W8 29-359 (human entry), limits assumed)
T2 construct: also called Cyno SIRPγ; Cyno SIRPγ-His
T2 chain: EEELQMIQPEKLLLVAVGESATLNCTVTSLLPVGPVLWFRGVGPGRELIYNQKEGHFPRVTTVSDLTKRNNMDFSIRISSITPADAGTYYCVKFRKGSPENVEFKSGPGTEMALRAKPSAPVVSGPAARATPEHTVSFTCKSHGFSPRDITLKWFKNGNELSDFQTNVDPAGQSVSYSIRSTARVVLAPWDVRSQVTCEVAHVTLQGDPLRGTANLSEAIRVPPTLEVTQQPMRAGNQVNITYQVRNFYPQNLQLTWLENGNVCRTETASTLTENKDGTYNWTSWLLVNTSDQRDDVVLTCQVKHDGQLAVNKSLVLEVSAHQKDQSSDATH

T3: Cynomolgus Monkey SIRPγ (plate-coated extracellular domain)
T3 construct: also called Cyno SIRPγ
T3 extracellular domain: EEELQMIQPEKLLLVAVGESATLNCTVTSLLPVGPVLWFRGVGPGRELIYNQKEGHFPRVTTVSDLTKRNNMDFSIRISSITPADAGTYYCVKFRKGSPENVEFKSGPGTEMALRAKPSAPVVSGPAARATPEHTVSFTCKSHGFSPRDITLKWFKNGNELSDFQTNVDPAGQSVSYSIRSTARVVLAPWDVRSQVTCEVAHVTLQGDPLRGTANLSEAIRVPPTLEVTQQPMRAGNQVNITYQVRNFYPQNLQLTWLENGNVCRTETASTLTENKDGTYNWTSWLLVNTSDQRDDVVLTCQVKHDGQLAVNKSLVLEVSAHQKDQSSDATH

T4: cynomolgus monkey SIRPγ on CHO cells (cynomolgus monkey, UniProt Q9P1W8 29-386 (human entry))
T4 construct: also called Cyno SIRPγ CHO
T4 chain: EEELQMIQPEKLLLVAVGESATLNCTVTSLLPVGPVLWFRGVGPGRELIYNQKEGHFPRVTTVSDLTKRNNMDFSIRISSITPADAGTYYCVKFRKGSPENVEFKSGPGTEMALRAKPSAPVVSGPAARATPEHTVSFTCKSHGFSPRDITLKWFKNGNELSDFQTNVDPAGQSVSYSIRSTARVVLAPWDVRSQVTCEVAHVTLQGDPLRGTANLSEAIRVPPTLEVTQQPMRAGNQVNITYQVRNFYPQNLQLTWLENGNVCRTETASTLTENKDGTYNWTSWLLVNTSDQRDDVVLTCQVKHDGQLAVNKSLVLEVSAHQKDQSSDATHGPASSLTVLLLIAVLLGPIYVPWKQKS


What was measured:
[1] = target: T5, extracellular binding domain of human SIRPγ (plate-coated) (human, UniProt Q9P1W8 29-360); assay: ELISA, coated SIRP ECD (2 µg/mL), anti-human IgG, luminescence
T5 construct: also called hSIRPγ
T5 sequence (Q9P1W8 29-360 limits assumed): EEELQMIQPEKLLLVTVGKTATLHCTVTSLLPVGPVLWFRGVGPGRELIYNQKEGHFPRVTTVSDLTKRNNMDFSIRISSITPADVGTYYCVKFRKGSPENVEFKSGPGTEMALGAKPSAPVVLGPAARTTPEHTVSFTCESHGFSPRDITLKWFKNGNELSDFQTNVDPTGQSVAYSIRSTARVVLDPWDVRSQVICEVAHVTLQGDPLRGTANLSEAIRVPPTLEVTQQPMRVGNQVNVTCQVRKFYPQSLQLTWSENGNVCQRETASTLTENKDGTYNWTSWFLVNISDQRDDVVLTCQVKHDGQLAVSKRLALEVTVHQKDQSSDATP
Procedure, shortened: (§1)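 Plate-coated SIRP extracellular domain (2 μg/mL), blocked, then exposed to purified antibodies in titration, after transient expression in Expi293F cells for 5 days and Protein A purification. Bound antibody is detected with anti-human IgG and a chemiluminescent substrate, and reported as relative luminescence units.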

[2] = target: T1, cynomolgus monkey SIRPα on CHO cells; assay: flow cytometry, CHO transfectants, anti-human IgG
Procedure, shortened: (§2)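 Stably transfected CHO cells were incubated with titrated antibodies, and binding was detected with a fluorescent anti-human IgG secondary. Median fluorescence intensity was recorded at each concentration. For the myc-scFv format, crude periplasmic extract was incubated with the SIRP-expressing lines and parental CHO-K1, and fold change <2.0 was scored as non-binder.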

[3] = target: T6, human SIRPβ1 on CHO cells (co-transfected with DAP12) (human, UniProt O00241 30-398); assay: flow cytometry, CHO transfectants, anti-human IgG
T6 construct: whole, on cells; co-transfected with DAP12; also called Human SIRPβ1 CHO
T6 sequence (O00241 30-398): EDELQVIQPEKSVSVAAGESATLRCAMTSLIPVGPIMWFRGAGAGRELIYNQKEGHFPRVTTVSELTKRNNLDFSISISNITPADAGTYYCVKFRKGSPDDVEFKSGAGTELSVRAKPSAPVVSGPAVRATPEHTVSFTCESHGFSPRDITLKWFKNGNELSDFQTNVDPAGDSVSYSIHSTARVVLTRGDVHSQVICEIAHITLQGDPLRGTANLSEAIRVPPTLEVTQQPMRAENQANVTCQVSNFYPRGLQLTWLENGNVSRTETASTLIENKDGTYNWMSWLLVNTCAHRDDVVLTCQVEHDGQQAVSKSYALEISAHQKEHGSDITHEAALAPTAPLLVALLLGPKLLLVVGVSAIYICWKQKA
Procedure, shortened: as §2

[4] = target: T7, human SIRPγ on stably transfected CHO cells (human, UniProt Q9P1W8 29-387); assay: flow cytometry, CHO transfectants, anti-human IgG
T7 construct: also called Human SIRPγ CHO
T7 sequence (Q9P1W8 29-387 limits assumed): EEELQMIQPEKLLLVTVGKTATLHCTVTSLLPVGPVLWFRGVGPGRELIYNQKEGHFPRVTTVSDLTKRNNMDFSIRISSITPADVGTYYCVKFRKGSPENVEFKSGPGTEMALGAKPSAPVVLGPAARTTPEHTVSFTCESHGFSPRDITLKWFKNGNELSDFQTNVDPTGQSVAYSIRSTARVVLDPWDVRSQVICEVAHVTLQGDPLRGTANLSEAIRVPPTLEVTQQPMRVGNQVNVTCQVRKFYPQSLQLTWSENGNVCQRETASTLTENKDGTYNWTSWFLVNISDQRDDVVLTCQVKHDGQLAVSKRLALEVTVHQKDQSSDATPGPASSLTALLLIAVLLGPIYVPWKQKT
Procedure, shortened: as §2

[5] = target: T5, extracellular binding domain of human …; assay: competition ELISA, coated SIRPγ ECD, antibody 1 h then 10 µg/mL biotinylated CD47-Fc (blocked ligand), streptavidin-HRP
Experimental: To carry out the competition experiment, the extracellular binding domain of SIRPγ was coated onto a high protein-binding plate and blocked. A titration of each SIRPγ antibody was incubated on the plate for 1 hour. […] Following a wash, streptavidin-HRP was added. The plate was washed again and developed using a chemiluminescent substrate. The plate was read on a plate reader to assess luminescence. […] A known blocker antibody was used as a positive control.

[6] = target: T2, cynomolgus monkey SIRPγ-His monomer …; assay: BLI Octet, antibody on AHC, global 1:2 model
Experimental: (§3) Antibodies were coated onto anti-human Fc capture (AHC) biosensors. SIRP-His monomer protein or bivalent SIRP protein with mouse Fc at four concentrations (200 nM, 100 nM, 50 nM, 25 nM) were exposed to the biosensor to measure on-rate kinetics of SIRP antibodies binding to SIRP protein. The biosensors were then exposed to wash buffer to measure off-rate kinetics. The resulting kinetic data were analyzed and fitted using a global 1:2 binding model.

[7] = target: T8, bivalent human SIRPγ protein with mouse Fc (human, UniProt Q9P1W8 29-360); assay: BLI Octet, antibody on AHC, global 1:2 model
T8 construct: also called Human SIRPγ-mFc
T8 sequence (Q9P1W8 29-360 limits assumed): as the sequence (Q9P1W8 29-360 limits assumed) above
Experimental: as §3

[8] = target: T9, human SIRPγ-His monomer protein (human, UniProt Q9P1W8 29-360); assay: BLI Octet, antibody on AHC, global 1:2 model
T9 construct: also called hSIRPγ
T9 sequence (Q9P1W8 29-360 limits assumed): as above
Experimental: as §3

[9] = target: T3, Cynomolgus Monkey SIRPγ (plate-coated …); assay: ELISA, coated SIRP ECD (2 µg/mL), anti-human IgG, luminescence
Procedure, shortened: as §1

[10] = target: T4, cynomolgus monkey SIRPγ on CHO cells; assay: flow cytometry, CHO transfectants, anti-human IgG
Procedure, shortened: as §2

Binder	EC50 (read off the curve) [1] [µg/mL]	binding result [2]	binding result [3]	EC50 (read off the curve) [4] [µg/mL]	IC50 (read off the curve) [5] [µg/mL]	Kd [6] [nM]	Kd [7] [nM]	Kd [8] [nM]	EC50 (read off the curve) [9] [µg/mL]	EC50 (read off the curve) [10] [µg/mL]
Antibody 88 (antibody, V domains shown) VH: QVQLVQSGAEVKKPGASVKVSCKASGYTFTSHDINWVRQAPGQGLEWMGWMNANNGNAGYAQKFQGRVTMTRDTSTSTVYMELSSLRSEDTAVYYCAKDLSPSSSWSTYYYYYGMDVWGQGTMVTVSS VL: DIQMTQSPSSLSASVGDRVTITCRASQSISNLLAWYQQKPGKAPKLLIYAASSLQSGVPSRFSGSGSGTDFTLTISSLQPEDFATYYCQQSYSTPYTFGQGTKLEIK	~0.04	no binding (tested: about 30 µg/mL)	no binding (tested: about 30 µg/mL)	~0.7	~0.4	67.8	50.6	136	–	–
Antibody 60 (antibody, V domains shown) VH: EVQLLESGGGLVQPGGSLRLSCAASGFTLGSYWMHWVRQAPGKGLEWVSLISWDGGSTYYADSVKGRFTISRDNSKNTLYLQMNSLRAEDTAVYYCAKGPWVGYSGYDLNYYYYGMDVWGQGTTVTVSS VL: DIQMTQSPSSLSASVGDRVTITCRASQDIRRALAWYQQKPGKAPKLLIYAASSLQSGVPSRFSGSGSGTDFTLTISSLQPEDFATYYCLQHNSYPPTFGQGTKLEIK	~0.02	no binding (tested: about 20 µg/mL)	no binding (tested: about 20 µg/mL)	~0.9	–	–	–	–	~0.03	~0.7
Antibody 90 (antibody, V domains shown) VH: QVQLVQSGAEVKKPGASVKVSCKASGYTFTSYYMHWVRQAPGQGLEWMGWMNPNSDNTGYAQKFQGRVTMTRDTSTSTVYMELSSLRSEDTAVYYCARVGVGYGYYYYGMDVWGQGTTVTVSS VL: DIQMTQSPSSLSASVGDRVTITCRAGQSIGDYLNWYQQKPGKAPKLLIYAASSLQSGVPSRFSGSGSGTDFTLTISSLQPEDFATYYCQQSYSTPWTFGQGTKVEIK	–	no binding (tested: about 30 µg/mL)	no binding (tested: about 30 µg/mL)	–	~0.2	69.2	87.6	175	–	–
Antibody 94 (antibody, V domains shown) VH: QVQLVQSGAEVKKPGASVKVSCKASGYTFTSYGISWVRQAPGQGLEWMGWISAYNGNTNYAQKFQGRVTMTRDTSTSTVYMELSSLRSEDTAVYYCARGTYYDYIWGSYRYSWFDYWGQGTLVTVSS VL: not shown	–	no binding (tested: about 30 µg/mL)	no binding (tested: about 30 µg/mL)	–	~0.2	42.6	80.2	30.1	–	–
Antibody 80 (antibody, V domains shown) VH: QVQLVQSGAEVKKPGASVKVSCKASGYTFTRYDINWVRQAPGQGLEWMGWMNPNSGNTGYAQKLQGRVTMTRDTSTSTVYMELSSLRSEDTAVYYCARERVGYCSSTSCLHPLDYWGQGTLVTVSS VL: DIQMTQSPSSLSASVGDRVTITCRASQGIRNDLGWYQQKPGKAPKLLIYSASNLQSGVPSRFSGSGSGTDFTLTISSLQPEDFATYYCQQSYDVPLTFGGGTKVEIK	~0.02	no binding (tested: about 20 µg/mL)	no binding (tested: about 20 µg/mL)	~0.2	–	–	–	–	~0.05	~0.7
Antibody 96 (antibody, V domains shown) VH: QVQLVQSGAEVKKPGASVKVSCKASGYTFTRYDINWVRQAPGQGLEWMGWMNPNSGNTGYAQKLQGRVTMTRDTSTSTVYMELSSLRSEDTAVYYCARERVGYCSSTSCLHPLDYWGQGTLVTVSS VL: DIQMTQSPSSLSASVGDRVTITCRASQGIRNDLGWYQQKPGKAPKLLIYSASNLQSGVPSRFSGSGSGTDFTLTISSLQPEDFATYYCQQSYDVPLTFGGGTKVEIK	–	no binding (tested: about 30 µg/mL)	no binding (tested: about 30 µg/mL)	~0.4	–	211	21.5	70.3	–	~0.6

Now from value to binder:

EC50 (read off the curve) [1] [µg/mL]	binding result [2]	binding result [3]	EC50 (read off the curve) [4] [µg/mL]	IC50 (read off the curve) [5] [µg/mL]	Kd [6] [nM]	Kd [7] [nM]	Kd [8] [nM]	EC50 (read off the curve) [9] [µg/mL]	EC50 (read off the curve) [10] [µg/mL]	Binder
~0.07	no binding (tested: about 30 µg/mL)	no binding (tested: about 30 µg/mL)	–	~1	40.3	1280	193	–	–	Antibody 95 (antibody, V domains shown) VH: QVQLVQSGAEVKKPGASVKVSCKASGYTFTSYYMHWVRQAPGQGLEWMGWMNPNSGNTGYAQKFQGRVTMTRDTSTSTVYMELSSLRSEDTAVYYCARDQMYSSYGMDVWGQGTTVTVSS VL: DIQMTQSPSSLSASVGDRVTITCRASESITNWLAWYQQKPGKAPKLLIYKASSLESGVPSRFSGSGSGTDFTLTISSLQPEDFATYYCQQSYGTPYTFGQGTKVEIK
–	no binding (tested: about 30 µg/mL)	no binding (tested: about 30 µg/mL)	–	~0.2	11.7	53.2	174	–	–	Antibody 83 (antibody, V domains shown) VH: QVQLVQSGAEVKKPGASVKVSCKASGYSFSDYYMHWVRQAPGQGLEWMGWMSPNSGNTGYAQKFQGRVTMTRDTSTSTVYMELSSLRSEDTAVYYCARQREEYGHYYYGMDVWGQGTMVTVSS VL: EIVMTQSPATLSVSPGERATLSCRASQSLGSTYLAWYQQKPGQAPRLLIYGASTRATGIPARFSGSGSGTEFTLTISSLQSEDFAVYYCQQYYSSPPTFGQGTKVEIK
–	no binding (tested: about 30 µg/mL)	no binding (tested: about 30 µg/mL)	–	~0.3	16.3	48.4	362	–	–	Antibody 97 (antibody, V domains shown) VH: QVQLVQSGAEVKKPGASVKVSCKASGHTFNNNYIHWVRQAPGQGLEWMGIINPSGGSTSYAQKFQGRVTMTRDTSTSTVYMELSSLRSEDTAVYYCARQIQDYGYYYYGMDVWGQGTTVTVSS VL: EIVMTQSPATLSVSPGERATLSCRASQSVSKYLAWYQQKPGQAPRLLIYAISARAAGIPARFSGSGSGTEFTLTISSLQSEDFAVYYCQQYYSSPPTFGQGTKVEIK
